T1: ACF (Rattus norvegicus, UniProt Q923K9)
T1 construct: from tissue; host or cells: rat liver nuclear extract (27S gradient fractions)
T1 sequence (Q923K9 1-586 isoform Q923K9-2): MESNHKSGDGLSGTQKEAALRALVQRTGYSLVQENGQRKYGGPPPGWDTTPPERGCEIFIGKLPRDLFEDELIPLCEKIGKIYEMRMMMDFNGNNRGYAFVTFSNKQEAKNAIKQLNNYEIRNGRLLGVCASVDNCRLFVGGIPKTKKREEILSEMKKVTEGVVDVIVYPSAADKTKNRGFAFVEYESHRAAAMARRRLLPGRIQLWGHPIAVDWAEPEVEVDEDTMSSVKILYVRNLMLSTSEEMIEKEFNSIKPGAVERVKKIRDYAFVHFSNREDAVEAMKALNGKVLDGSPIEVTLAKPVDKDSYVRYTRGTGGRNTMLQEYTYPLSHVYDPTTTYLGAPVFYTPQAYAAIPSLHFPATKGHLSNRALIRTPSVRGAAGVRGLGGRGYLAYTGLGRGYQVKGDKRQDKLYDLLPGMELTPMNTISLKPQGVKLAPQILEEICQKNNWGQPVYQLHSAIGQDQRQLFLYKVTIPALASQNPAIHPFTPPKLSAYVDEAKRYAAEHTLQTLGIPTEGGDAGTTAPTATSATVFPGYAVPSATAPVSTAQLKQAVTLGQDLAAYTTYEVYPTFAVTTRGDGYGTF


Columns and labels:
[1] = system: apoB mRNA editing; experiment: in vitro apoB mRNA editing activity of nuclear extract after phosphatase treatment; type: biochemical, rat
Description: (§1) In vitro editing reactions and RNA binding assays. In vitro editing reactions and quantitative poisoned-primer extension assays were carried out using 80 μg of extract proteins as previously described (Shah et al. (1993), Smith, H. C. (1998)). ApoB RNA binding assays were performed by subjecting nuclear extract (80 μg) to in vitro editosome assembly and ultraviolet crosslinking (Smith, H. C. (1998)).
As an interaction between ACF and APOBEC-1 is critical for editing activity (Metha et al. Mol Cell Biol 20:1846-54 (2000)) the effect of alkaline phosphatase treatment on in vitro editing activity of hepatocyte extracts was investigated.

[2] = target: T1, ACF; experiment: removal of 32P label from immunoprecipitated hepatic ACF; type: biochemical; conditions: in vivo labeled rat hepatic nuclear extract
Description: ACF is a phosphoprotein. Previous studies using site-directed mutagenesis of APOBEC-1 and overexpression of protein kinase Co implicated phosphorylation of APOBEC-1 as a mechanism for activating apoB mRNA editing (Chen et al. (2001)). To evaluate whether endogenous ACF is phosphorylated in vivo, rats were radiolabeled for 4 hours via an intraperitoneal injection of orthophosphoric acid in HEPES-buffered saline. Following extensive digestion of hepatic nuclear extracts with DNase I and RNase T1 to remove radiolabeled nucleic acids, ACF was immunoprecipitated with the CT antibody, resolved by SDS-PAGE, transferred to nitrocellulose and analyzed by autoradiography as well as immunoblotting with ACF NT antibody (FIG. 3A). A single band was detected by autoradiography that super-imposed with ACF-specific immunoblot reactivity. Greater than 90% of the ^32P-label was removed by CIAP treatment (FIG. 3B), consistent with the post-translational phosphorylation of protein. […] The amino acid sequence of rat ACF was predicted contain 23 serine/threonine and 7 tyrosine high probability sites of phosphorylation (http://www.cbs.dtu.dk/services.NetPhos and http://expasy.org/tools/scanprosite). […] Nuclear ACF was detected as two predominant charge isoforms (FIG. 3B). […]

[3] = system: ACF/APOBEC-1 complexes; experiment: co-immunoprecipitation of HA-tagged APOBEC-1 with ACF from McArdle nuclear extracts; type: biochemical, rat; conditions: nuclear extracts treated with CIAP
Description: Nuclear extracts were immunoprecipitated with ACF CT antibody and processed as described in FIG. 1. For CIAP treatment extracts were adjusted to 5 mM MgCl2, 3 mM CaCl2, 0.1 mM ZnCl2 and 25% glycerol and then incubated with 5U CIAP for 1 hour at 30° C. Control extracts were treated similarly but lacked phosphatase. The ratios of APOBEC-1:ACF were determined by scanning densitometry and quantitation using ImageJ Software. HC, position of 1g heavy chain. (n=4, standard deviation+/−0.2). […] In vitro editing activity was determined using the poisoned-primer extension assay. The percent editing was quantified by PhoshorImager (Molecular Dynamics) scanning densitometry. Data shown is representative of 3 independent experiments. *Statistical significance was determined to be P≦0.01 by unpaired t-test relative to control. […] Quantitation of relative amounts of ACF bound was performed using PhoshorImager scanning densitometry. Data shown are representative of 4 independent experiments. *Statistical significance was determined to be P≦0.01 by unpaired t-test relative to control.
Given the selective recovery of APOBEC-1 with nuclear ACF (FIG. 1), the interaction between ACF and APOBEC-1 was explored in nuclear extracts was mediated by post-translational modifications such as protein phosphorylation.

[4] = system: apoB mRNA; experiment: ultraviolet light cross-linking of ACF (p66) to apoB RNA in liver nuclear extract; type: binding, rat
Description: as §1
To further investigate the role of phosphorylation, rat liver nuclear extract was treated with CIAP and assayed for in vitro apoB RNA editing activity. […] Phosphorylation can play a role in the subcellular localization and/or stability of ACF. […] These yields were achieved by treatment of rat primary hepatocytes (40 T25 flasks) with 0.45% ethanol for four hours in the presence of 70 mCi of total inorganic ^32P followed by immunoprecipitation of ACF64/65 (FIG. 32). Two IPs were resolved by PAGE (FIG. 32, Coomassie) and ACF64/65 identified (western).

[5] = target: mooring sequence; conditions: read-out: Kd for the mooring sequence / apoB mRNA; cited from earlier work

| inhibition of apoB mRNA editing activity relative to control extracts ([1]; CIAP-treated nuclear extract) | inhibition of in vitro editing activity compared to buffer-treated control extracts ([1]; rat liver nuclear extracts) | 32P-label removed from ACF [2] | Molecule | reduction in HA-tagged APOBEC-1 recovered with immunoprecipitated ACF [3] | ultraviolet light cross-linking of ACF to apoB mRNA ([4]; 1, 5 or 10 U) | increase in yield of cross-linked p66 compared to control ([4]; highest CIAP treatment) | Kd [5] |
| --- | --- | --- | --- | --- | --- | --- | --- |
| 2.5 fold | > 50% | Greater than 90% | CIAP: Calf Intestinal Alkaline Phosphatase (protein, UniProt P19111 20-506, looked up) Intestinal-type alkaline …: LVPVEEEDPAFWNRQAAQALDVAKKLQPIQTAAKNVILFLGDGMGVPTVTATRILKGQMNGKLGPETPLAMDQFPYVALSKTYNVDRQVPDSAGTATAYLCGVKGNYRTIGVSAAARYNQCKTTRGNEVTSVMNRAKKAGKSVGVVTTTRVQHASPAGAYAHTVNRNWYSDADLPADAQMNGCQDIAAQLVNNMDIDVILGGGRKYMFPVGTPDPEYPDDASVNGVRKRKQNLVQAWQAKHQGAQYVWNRTALLQAADDSSVTHLMGLFEPADMKYNVQQDHTKDPTLQEMTEVALRVVSRNPRGFYLFVEGGRIDHGHHDDKAYMALTEAGMFDNAIAKANELTSELDTLILVTADHSHVFSFGGYTLRGTSIFGLAPSKALDSKSYTSILYGNGPGYALGGGSRPDVNDSTSEDPSYQQQAAVPQASETHGGEDVAVFARGPQAHLVHGVEEETFVAHIMAFAGCVEPYTDCNLPAPTTATSIPD | 3 fold | did not significantly increase ultraviolet light cross-linking of ACF to apoB mRNA | 40% |  |
|  |  |  | ACF: APOBEC-1 Complementation Factor (protein, UniProt Q923K9 1-594, looked up) APOBEC1 complementation factor: MESNHKSGDGLSGTQKEAALRALVQRTGYSLVQENGQRKYGGPPPGWDTTPPERGCEIFIGKLPRDLFEDELIPLCEKIGKIYEMRMMMDFNGNNRGYAFVTFSNKQEAKNAIKQLNNYEIRNGRLLGVCASVDNCRLFVGGIPKTKKREEILSEMKKVTEGVVDVIVYPSAADKTKNRGFAFVEYESHRAAAMARRRLLPGRIQLWGHPIAVDWAEPEVEVDEDTMSSVKILYVRNLMLSTSEEMIEKEFNSIKPGAVERVKKIRDYAFVHFSNREDAVEAMKALNGKVLDGSPIEVTLAKPVDKDSYVRYTRGTGGRNTMLQEYTYPLSHVYDPTTTYLGAPVFYTPQAYAAIPSLHFPATKGHLSNRALIRTPSVREIYMNVPVGAAGVRGLGGRGYLAYTGLGRGYQVKGDKRQDKLYDLLPGMELTPMNTISLKPQGVKLAPQILEEICQKNNWGQPVYQLHSAIGQDQRQLFLYKVTIPALASQNPAIHPFTPPKLSAYVDEAKRYAAEHTLQTLGIPTEGGDAGTTAPTATSATVFPGYAVPSATAPVSTAQLKQAVTLGQDLAAYTTYEVYPTFAVTTRGDGYGTF |  |  |  | 8 nM |

Source: patent US20090075925A1, “Methods and Compositions Related to APOBEC-1 Expression” (priority 2006, published 2009)
